Measured values taken from article PMC3977038.

Tests used:
[1] = target: Fcε3-4 sub-fragment of IgE-Fc (human); assay: ITC
[2] = target: aεFab^1–IgE-Fc complex (one aεFab bound to IgE-Fc) (UniProt P01854); assay: SPR

B1: anti-ε-chain Fab (aεFab), anti-human IgE-Fc antibody in human IgG1 Fab format (Fab, V domains shown)
VH: QVQLQQSGPGLVKPSQTLSLTCGISGDSVSSNSAAWNWLRQSPSRGLEWLGRTYYRSKWYNDYAVSMKSRITINPDTSRNQFSLQLNSVTPEDTAVYYCARDGEISYDYYYYGMDVWGRGTLVTVSS
VL: QSVLTQPPSASGTPGQRVTISCSGSSSNIGNNGVNWYQQVPGKPPKLLIYYDDLLPSGVSDRFSGSKSGTSASLAISGLQSEDEADYYCEAWDDSLDGVVFGGGTKLTVL
Binder B1 has a Kd2 (second site, sequential two-site fit) [1] of 0.98 µM and a Kd [2] of 1.4 µM.
